Results reported in the supplement of paper PMC11246515.
± gives the standard deviation of the averaged measurements.

Experiment: total protein half-life in vivo (active degradation + dilution); higher = more stable protein
[1] = E. coli NCM3722 delta-hslV, growth: N-lim chemostat, doubling time 6 h
[2] = wild type E. coli NCM3722, growth: N-lim chemostat, doubling time 12 h
[3] = E. coli NCM3722 delta-clpP delta-lon delta-hslV, growth: N-lim chemostat, doubling time 6 h
[4] = E. coli NCM3722 delta-clpP, growth: N-lim chemostat, doubling time 6 h
[5] = E. coli NCM3722 delta-lon, growth: N-lim chemostat, doubling time 6 h
[6] = E. coli NCM3722 delta-smpB, growth: N-lim chemostat, doubling time 6 h
[7] = wild type E. coli NCM3722, growth: C-lim chemostat, doubling time 6 h
[8] = wild type E. coli NCM3722, growth: N-lim chemostat, doubling time 6 h
[9] = wild type E. coli NCM3722, growth: P-lim chemostat, doubling time 6 h
[10] = wild type E. coli NCM3722, growth: P-lim chemostat, doubling time 12 h
[11] = wild type E. coli NCM3722, growth: C-lim chemostat, doubling time 3 h
[12] = wild type E. coli NCM3722, growth: C-lim chemostat, doubling time 12 h

Sequence | total protein half-life in vivo [1] | total protein half-life in vivo [2] | total protein half-life in vivo [3] | total protein half-life in vivo [4] | total protein half-life in vivo [5] | total protein half-life in vivo [6] | total protein half-life in vivo [7] | total protein half-life in vivo [8] | total protein half-life in vivo [9] | total protein half-life in vivo [10] | total protein half-life in vivo [11] | total protein half-life in vivo [12]
MANFFIRRPIFAWVLAIILMMAGALAILQLPVAQYPTIAPPAVSVSANYPGADAQTVQDTVTQVIEQNMNGIDNLMYMSSTSDSAGSVTITLTFQSGTDPDIAQVQVQNKLQLATPLLPQEVQQQGISVEKSSSSYLMVAGFVSDNPGTTQDDISDYVASNVKDTLSRLNGVGDVQLFGAQYAMRIWLDADLLNKYKLTPVDVINQLKVQNDQIAAGQLGGTPALPGQQLNASIIAQTRFKNPEEFGKVTLRVNSDGSVVRLKDVARVELGGENYNVIARINGKPAAGLGIKLATGANALDTAKAIKAKLAELQPFFPQGMKVLYPYDTTPFVQLSIHEVVKTLFEAIMLVFLVMYLFLQNMRATLIPTIAVPVVLLGTFAILAAFGYSINTLTMFGMVLAIGLLVDDAIVVVENVERVMMEDKLPPKEATEKSMSQIQGALVGIAMVLSAVFIPMAFFGGSTGAIYRQFSITIVSAMALSVLVALILTPALCATLLKPVSAEHHENKGGFFGWFNTTFDHSVNHYTNSVGKILGSTGRYLLIYALIVAGMVVLFLRLPSSFLPEEDQGVFLTMIQLPAGATQERTQKVLDQVTDYYLKNEKANVESVFTVNGFSFSGQAQNAGMAFVSLKPWEERNGDENSAEAVIHRAKMELGKIRDGFVIPFNMPAIVELGTATGFDFELIDQAGLGHDALTQARNQLLGMAAQHPASLVSVRPNGLEDTAQFKLEVDQEKAQALGVSLSDINQTISTALGGTYVNDFIDRGRVKKLYVQADAKFRMLPEDVDKLYVRSANGEMVPFSAFTTSHWVYGSPRLERYNGLPSMEIQGEAAPGTSSGDAMALMENLASKLPAGIGYDWTGMSYQERLSGNQAPALVAISFVVVFLCLAALYESWSIPVSVMLVVPLGIVGVLLAATLFNQKNDVYFMVGLLTTIGLSAKNAILIVEFAKDLMEKEGKGVVEATLMAVRMRLRPILMTSLAFILGVLPLAISNGAGSGAQNAVGIGVMGGMVSATLLAIFFVPVFFVVIRRCFKG | 5.63 h | 8.2 h | – | – | – | – | – | – | – | – | – | –
MIKVYGVPGWGSTISELMLTLADIPYQFVDVSGFDHEGASRELLKTLNPLCQVPTLALENDEIMTETAAIALMVLDRRPDLAPPVGRAERQLFQRLLVWLVANVYPTFTFADYPERWAPDAPEQLKKNVIEYRKSLYIWLNSQLTAEPYAFGEQLTLVDCYLCTMRTWGPGHEWFQDNATNISAIADAVCQLPKLQEVLKRNEII | 4.93 ± 0.096 h | – | 5.47 ± 0.78 h | 4.57 ± 0.21 h | 4.6 h | 4.48 ± 0.6 h | 4.99 h | 4.76 h | 6.17 h | 12.2 h | – | –
MFLINGHKQESLAVSDRATQFGDGCFTTARVIDGKVSLLSAHIQRLQDACQRLMISCDFWPQLEQEMKTLAAEQQNGVLKVVISRGSGGRGYSTLNSGPATRILSVTAYPAHYDRLRNEGITLALSPVRLGRNPHLAGIKHLNRLEQVLIRSHLEQTNADEALVLDSEGWVTECCAANLFWRKGNVVYTPRLDQAGVNGIMRQFCIRLLAQSSYQLVEVQASLEESLQADEMVICNALMPVMPVCACGDVSFSSATLYEYLAPLCERPN | – | 6.33 ± 0.35 h | 5.13 ± 0.82 h | 3.87 ± 0.15 h | 4.279 ± 0.035 h | 3.89 ± 0.18 h | 5.58 ± 0.27 h | 3.82 ± 0.069 h | 6.45 ± 1.4 h | 10.7 ± 1 h | 3.04 ± 0.24 h | 10.9 ± 0.86 h
MRALPICLVALMLSGCSMLSRSPVEPVQSTAPQPKAEPAKPKAPRATPVRIYTNAEELVGKPFRDLGEVSGDSCQASNQDSPPSIPTARKRMQINASKMKANAVLLHSCEVTSGTPGCYRQAVCIGSALNITAK | 6.58 ± 0.75 h | 14.7 ± 1.2 h | 5.47 ± 0.43 h | 5.57 ± 0.38 h | 6.404 ± 0.011 h | 5.51 ± 0.33 h | 5.65 ± 0.51 h | 5.65 ± 0.16 h | 6.5 ± 1.4 h | 13.4 ± 0.85 h | 2.89 ± 0.62 h | 12.4 ± 3.6 h
MLKPEMIEKLNEQMNLELYSSLLYQQMSAWCSYHTFEGAAAFLRRHAQEEMTHMQRLFDYLTDTGNLPRINTVESPFAEYSSLDELFQETYKHEQLITQKINELAHAAMTNQDYPTFNFLQWYVSEQHEEEKLFKSIIDKLSLAGKSGEGLYFIDKELSTLDTQN [P0A998] | 3.94 ± 1.3 h | 4.479 ± 0.025 h | 5.44 ± 1.7 h | 3.41 ± 0.55 h | 4.12 ± 0.86 h | 3.38 ± 1.6 h | 5.8 ± 0.56 h | 3.33 ± 0.25 h | 4.92 ± 0.45 h | 10.6 ± 0.44 h | – | –
MESLLTLPLAGEARVRILQITDTHLFAQKHEALLGVNTWESYQAVLEAIRPHQHEFDLIVATGDLAQDQSSAAYQHFAEGIASFRAPCVWLPGNHDFQPAMYSALQDAGISPAKRVFIGEQWQILLLDSQVFGVPHGELSEFQLEWLERKLADAPERHTLLLLHHHPLPAGCSWLDQHSLRNAGELDTVLAKFPHVKYLLCGHIHQELDLDWNGRRLLATPSTCVQFKPHCSNFTLDTIAPGWRTLELHADGTLTTEVHRLADTRFQPDTASEGY [P0AEW4] | 4.6 ± 0.28 h | 8.5 ± 0.45 h | 5.15 ± 0.77 h | 4.65 ± 0.26 h | 4.98 ± 0.096 h | 4.34 ± 0.65 h | 5.4 ± 0.74 h | 4.56 ± 0.88 h | 4.435 ± 0.035 h | 8.69 ± 0.43 h | 2.948 ± 0.017 h | 11.6 ± 1.3 h
